Reference: patent US20150025013A1

Tests used:
[1] = target: (pro)renin receptor (PRR) on mpkCCD cells (UniProt Q9CYN9); experiment: cell-based or functional assay
[2] = target: (pro)renin receptor (PRR), mouse (mouse) (UniProt Q9CYN9); experiment: cell-based or functional assay
Sequence of (pro)renin receptor (PRR), mouse (mouse) (Q9CYN9 18-350): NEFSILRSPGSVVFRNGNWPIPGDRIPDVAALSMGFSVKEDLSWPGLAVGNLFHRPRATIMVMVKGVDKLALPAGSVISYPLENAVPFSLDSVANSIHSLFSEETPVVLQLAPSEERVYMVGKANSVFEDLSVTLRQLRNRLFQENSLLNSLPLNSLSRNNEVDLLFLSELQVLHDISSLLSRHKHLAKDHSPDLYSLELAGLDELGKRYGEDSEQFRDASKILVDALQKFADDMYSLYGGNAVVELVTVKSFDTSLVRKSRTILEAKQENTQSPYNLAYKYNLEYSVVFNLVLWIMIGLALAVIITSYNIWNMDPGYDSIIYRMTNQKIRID

Sequence of (pro)renin receptor (PRR) on mpkCCD cells (Q9CYN9 18-350 limits assumed): as the sequence (Q9CYN9 18-350) above

Substance	ENaC activity (Ieq) in mpkCCD cells, 10 nM for 5 min (control group 1.17+0.05 µA/cm2) [1] [µA/cm2]	pressor response (delta MAP) to ICV mouse prorenin alone in C57BI/6J mice [2] [mmHg]	pressor response (delta MAP) to ICV mouse prorenin in neuron-specific PRR knockout (Nefh-PRR) mice [2] [mmHg]	pressor response (delta MAP) to ICV mouse prorenin in wild-type mice [2] [mmHg]
renin (cell culture experiments of Example 13) (enzyme)	1.58			
prorenin (cell culture experiments of Example 13) (ligand)	3.16			
mouse prorenin (from UniProt P06281 22-402) (ligand)		31.3	5	41
